Measured values reported in the supplement of paper PMC7877785.
± gives the uncertainty stated by the source.

Experiment: self-splicing fitness, log relative to wild type (ln ratio); higher = more splicing; Tetrahymena group I intron in knt gene, E. coli kanamycin selection, DiMSum; sequences stand for … in CUCUCU…GGAGGGAAAAGUUAUCAGGCAUGCACCUGGUAGCUAGUCUUUAAACCAAUAGAUUGCAUCGGUUUAAAAGGCAAGACCGUCAAAUUGCGGGAAAGGGGUCAACAGCCGUUCAGUACCAAGUCUCAGGGGAAACUUUGAGAUGGCCUUGCAAAGGGUAUGGUAAUAAGCUGACGGACAUGGUCCUAACCACGCAGCCAAGUCCUAAGUCAACAGAUCUUCUGUUGAUAUGGAUGCAGUUCACAGACUAAAUGUCGGUCGGGGAAGAUGUAUUCUUCUCAUAAGAUAUAGUCGGACCUCUCCUUAAUGGGAGCUAGCGGAUGAAGUGAUGCAACACUGGAGCCGCUGGGAACUAAUUUGUAUGCGAAAGUAUAUUGAUUAGUUUUGGAGUACUCGUGGUCG
Procedure, shortened: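 A randomised library covering all eight P1ex-region intron nucleotides was built with the intron in the knt kanamycin-resistance gene on pET-22b(+) and held in E. coli BL21(DE3). Cells were grown overnight at 37°C or 30°C on LB agar, with or without 25 μg/mL kanamycin, plus 100 μg/mL carbenicillin, 50 μM IPTG and 0.2% rhamnose, and pooled colonies were amplicon-sequenced on an Illumina HiSeq 2500. DiMSum fitness is the error-weighted combination of wild-type-normalised replicate fold changes, kanamycin versus none.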

Sequence | self-splicing fitness (ln) (30 °C) | self-splicing fitness (ln) (37 °C)
GACUAGCAAUAUUACGCAUG | -1.24 ± 0.063 | -0.455 ± 0.075
GACUAGCAAUAUUACGCCAC |  | -1.76 ± 0.41
GACUAGCAAUAUUACGCCGU | -2.15 ± 0.11 | -0.995 ± 0.1
GACUAGCAAUAUUACGCCUG | -0.826 ± 0.12 | -0.091 ± 0.14
GACUAGCAAUAUUACGCGUC | -3.14 ± 0.16 | -2.78 ± 0.23
GACUAGCAAUAUUACGCUAC | -1.81 ± 0.16 | -1.33 ± 0.2
GACUAGCAAUAUUACGCUCG | -1.01 ± 0.14 | -0.0622 ± 0.19
GACUAGCAAUAUUACGCUCU | -1.87 ± 0.12 | -0.12 ± 0.14
GACUAGCAAUAUUACGGCCA | -0.241 ± 0.16 | -0.327 ± 0.26
GACUAGCAAUAUUACGGCCG | -0.632 ± 0.13 | -0.578 ± 0.16
GACUAGCAAUAUUACGGGUA | -0.752 ± 0.076 | -0.669 ± 0.078
GACUAGCAAUAUUACGGUCA | -1.13 ± 0.27 | -1.36 ± 0.26
GACUAGCAAUAUUACGGUUC | -3.18 ± 0.17 | -2.7 ± 0.32
GACUAGCAAUAUUACGGUUG | -1.25 ± 0.072 | -0.449 ± 0.092
GACUAGCAAUAUUACGUACC | -1.65 ± 0.15 | -0.961 ± 0.14
GACUAGCAAUAUUACGUACG | -0.653 ± 0.066 | -0.585 ± 0.098
GACUAGCAAUAUUACGUAGA | -0.815 ± 0.077 | -1.17 ± 0.097
GACUAGCAAUAUUACGUAUG | -1.82 ± 0.068 | -1.33 ± 0.091
GACUAGCAAUAUUACGUCUG | -3.86 ± 0.25 | -1.57 ± 0.23
GACUAGCAAUAUUACGUUAA | -2.16 ± 0.12 | -0.716 ± 0.11
GACUAGCAAUAUUACGUUAU | -2.4 ± 0.098 | -1.28 ± 0.11
GACUAGCAAUAUUACGUUCG | -3.18 ± 0.22 | -0.787 ± 0.13
GACUAGCAAUAUUACGUUUG | -2.63 ± 0.13 | -2.46 ± 0.2
GAGAAGCAAUAUUACGAACU | -0.774 ± 0.085 | -0.288 ± 0.092
GAGAAGCAAUAUUACGAAUA | -1.88 ± 0.25 | -0.917 ± 0.2
GAGAAGCAAUAUUACGACCU | 0.392 ± 0.1 | -0.128 ± 0.096

Sequence | self-splicing fitness (ln) (30 °C) | self-splicing fitness (ln) (37 °C)
GAGAAGCAAUAUUACGAUCU | -1.66 ± 0.097 | -0.515 ± 0.095
GAGAAGCAAUAUUACGAUGA | -1.04 ± 0.12 | -0.334 ± 0.11
GAGAAGCAAUAUUACGAUUA | -0.739 ± 0.099 | 0.245 ± 0.081
GAGAAGCAAUAUUACGCAAA | -3.07 ± 0.14 | -1.8 ± 0.15
GAGAAGCAAUAUUACGCCGU | -2.18 ± 0.21 | -1.89 ± 0.21
GAGAAGCAAUAUUACGCGCC | -1.88 ± 0.33 | -0.596 ± 0.23
GAGAAGCAAUAUUACGCGUC | -3.46 ± 0.34 | -2.31 ± 0.33
GAGAAGCAAUAUUACGCUAC | -3.38 ± 0.18 | -1.58 ± 0.18
GAGAAGCAAUAUUACGCUCU | -3.26 ± 0.35 | -2.25 ± 0.44
GAGAAGCAAUAUUACGGACU | -0.326 ± 0.091 | -0.101 ± 0.11
GAGAAGCAAUAUUACGGCAU | -0.391 ± 0.07 | 0.567 ± 0.11
GAGAAGCAAUAUUACGGCUC |  | -2.07 ± 0.21
GAGAAGCAAUAUUACGGGUG | -1.72 ± 0.15 | -1.88 ± 0.14
GAGAAGCAAUAUUACGGUCA | -0.263 ± 0.1 | 0.383 ± 0.12
GAGAAGCAAUAUUACGUAAA | -2.16 ± 0.14 | -0.647 ± 0.17
GAGAAGCAAUAUUACGUCAU | -2.57 ± 0.097 | -0.577 ± 0.089
GAGAAGCAAUAUUACGUCGA | -1.54 ± 0.13 | -1.09 ± 0.14
GAGAAGCAAUAUUACGUCUC | -4.38 ± 0.46 | -2.39 ± 0.24
GAGAAGCAAUAUUACGUGAU | -1.81 ± 0.084 | -0.801 ± 0.11
GAGAAGCAAUAUUACGUGUC | -3.95 ± 0.27 | -2.1 ± 0.33
GAGAAGCAAUAUUACGUUCA | -0.919 ± 0.2 | -0.374 ± 0.22
GAGAAGCAAUAUUACGUUCC | -3.57 ± 0.32 | -1.65 ± 0.29
GAGCAGCAAUAUUACGAAAA | -2.68 ± 0.39 | 
GAGCAGCAAUAUUACGAAUU | -1.95 ± 0.14 | -1.45 ± 0.15
GAGCAGCAAUAUUACGACGC | 0.00947 ± 0.079 | 0.534 ± 0.1
GAGCAGCAAUAUUACGAGAC | -2.97 ± 0.3 | -0.985 ± 0.2

Sequence | self-splicing fitness (ln) (30 °C) | self-splicing fitness (ln) (37 °C)
GAGCAGCAAUAUUACGAGGC | -2.67 ± 0.47 | 
GAGCAGCAAUAUUACGCGUC | -3.39 ± 0.29 | -2.8 ± 0.3
GAGCAGCAAUAUUACGCGUU | -3.08 ± 0.12 | -1.32 ± 0.12
GAGCAGCAAUAUUACGCUAA | -1.3 ± 0.15 | -0.144 ± 0.18
GAGCAGCAAUAUUACGCUCG | -2.11 ± 0.33 | -0.285 ± 0.22
GAGCAGCAAUAUUACGGAGU | -3.32 ± 0.26 | -3.07 ± 0.4
GAGCAGCAAUAUUACGGCCC | -1.51 ± 0.15 | -1.09 ± 0.19
GAGCAGCAAUAUUACGGCCG | -1.05 ± 0.17 | -0.59 ± 0.27
GAGCAGCAAUAUUACGGGCC | -2.94 ± 0.33 | -1.21 ± 0.29
GAGCAGCAAUAUUACGGGCU | -3.92 ± 0.28 | -2.55 ± 0.34
GAGCAGCAAUAUUACGGUAG | -4.29 ± 0.2 | -3.24 ± 0.24
GAGCAGCAAUAUUACGGUCU | -0.727 ± 0.12 | -0.857 ± 0.14
GAGCAGCAAUAUUACGUACG | -3.24 ± 0.21 | -1.38 ± 0.17
GAGCAGCAAUAUUACGUACU | -0.0719 ± 0.068 | -0.502 ± 0.085
GAGCAGCAAUAUUACGUGUA | -2 ± 0.12 | -0.876 ± 0.094
GAGCAGCAAUAUUACGUUGA | -2.38 ± 0.17 | -1.32 ± 0.13
GAGGAGCAAUAUUACGAAAG |  | -2.01 ± 0.33
GAGGAGCAAUAUUACGAAGC | -1.73 ± 0.32 | -2.22 ± 0.4
GAGGAGCAAUAUUACGAAUU | -3.43 ± 0.3 | 
GAGGAGCAAUAUUACGACGC | -0.403 ± 0.15 | 0.209 ± 0.14
GAGGAGCAAUAUUACGAUCG | -2.15 ± 0.22 | -1.2 ± 0.32
GAGGAGCAAUAUUACGCAAC | -2.75 ± 0.38 | 
GAGGAGCAAUAUUACGCAGU | -2.89 ± 0.28 | -3.66 ± 0.42
GAGGAGCAAUAUUACGCGGG | -2.11 ± 0.31 | -2.66 ± 0.34
GAGGAGCAAUAUUACGCUCU | -2.18 ± 0.42 | -1.73 ± 0.47
